Measurements taken from patent US20240036044A1 (GEMINA LABORATORIES, published 2024).

Key:
[1] = molecular target: T1, recombinant SARS-CoV-2 Nucleocapsid protein antigen (Z03488, Genscript) (SARS-CoV-2, UniProt P0DTC9 1-419); assay: dot blot dipstick, gold nanoparticles with EMT-003 alone
T1 construct: also called SARS-CoV-2 Nucleocapsid antigen; NC

[2] = molecular target: Monoclonal antibody against the SARS-CoV-2 Nucleocapsid protein (A02039, Genscript)
[3] = molecular target: Monoclonal antibody against the SARS-CoV-2 Spike protein (A02038, Genscript)
[4] = molecular target: T2, recombinant SARS-CoV-2 Spike protein antigen (Z03501, Genscript) (SARS-CoV-2, UniProt P0DTC2 16-685); assay: dot blot dipstick assay, gold nanoparticle conjugate without antibody
T2 construct: also called SARS-CoV-2 Spike antigen; S antigen

B1: gold-binding fusion protein EMT003 (protein G' - linker - gold-binding peptide EMT015) (other)
chain: MTYKLILNGKTLKGETTTEAVDAATAEKVFKQYANDNGVDGEWTYDDATKTFTVTEKPEVIDASELTPAVTTYKLVINGKTLKGETTTEAVDAATAEKVFKQYANDNGVDGEWTYDDATKTFTVTEKPEVIDASELTPAVTTYKLVINGKTLKGETTTKAVDAETAEKAFKQYANDNGVDGVWTYDDATKTFTVTEGGGGSGGGGSGGGGSASGGGMHGKTQATSGTIQSMHGKTQATSGTIQSMHGKTQATSGTIQSMHGKTQATSGTIQSMHGKTQATSGTIQSMHGKTQATSGTIQSMHGKTQATSGTIQS
notes: also called EMT-03; Gold fusion protein
- binding result [1]: no binding
- Kd [2]: 0.258 nM
- koff [2]: 0.000149 s⁻¹
- kon [2]: 577000 M⁻¹ s⁻¹
- Kd [3]: 0.192 nM
- koff [3]: 0.000103 s⁻¹
- kon [3]: 537000 M⁻¹ s⁻¹
- binding result [4]: no binding (tested: 0.5 µg antigen spotted)
